Data reported in patent US20180155451A1 (published 2018).
One block for each binder: values may come before it.

Columns and labels:
[1] = target: T1, FcγRIa extracellular domain with C-terminal His tag (human, UniProt P12314 16-292); test: SPR (Biacore), antibody captured on antigen-peptide chip, FcγR as analyte; relative binding
T1 construct: extracellular domain; Expressed in FreeStyle293 cells; analyte in the Biacore assay; also called FcgRI; 1a; not shown: His tag at the C terminus

[2] = target: T2, FcγRIIb extracellular domain with C-terminal His tag (human, UniProt P31994 43-217); test: as above
T2 construct: extracellular domain; Expressed in FreeStyle293 cells; analyte in the Biacore assay; also called FcgRIIb; 2b; not shown: His tag at the C terminus
T2 sequence (looked up): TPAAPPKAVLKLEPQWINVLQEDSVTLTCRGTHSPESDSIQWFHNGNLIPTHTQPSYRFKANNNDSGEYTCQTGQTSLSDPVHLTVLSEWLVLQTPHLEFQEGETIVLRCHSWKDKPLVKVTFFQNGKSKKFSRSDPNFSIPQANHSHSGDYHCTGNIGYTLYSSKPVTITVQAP

T1 sequence (P12314 16-292): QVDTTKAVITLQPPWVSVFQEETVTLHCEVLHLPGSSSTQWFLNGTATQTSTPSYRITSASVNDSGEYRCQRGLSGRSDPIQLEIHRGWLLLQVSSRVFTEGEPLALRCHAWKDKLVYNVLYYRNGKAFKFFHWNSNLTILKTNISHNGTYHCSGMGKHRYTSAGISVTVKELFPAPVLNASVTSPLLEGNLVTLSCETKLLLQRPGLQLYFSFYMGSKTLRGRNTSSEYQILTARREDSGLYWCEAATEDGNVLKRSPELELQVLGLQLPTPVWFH

He/Con_1a [1]: 107 % of GpH7-A5/GpH7-B3/GpL16-k0 (=100)
He/Con_2b [2]: 67.8 % of GpH7-A5/GpH7-B3/GpL16-k0 (=100)
B4: GpH7-A5/GpH7-B3 variant H268_08L/GpL16-k0 (He Ab) (antibody, human IgG1, kappa)
heavy 1: not shown
heavy 2: not shown
light: DIVMTQSPLSLPVTPGEPASISCQASESLVHSNRNTYLHWYLQKPGQSPQLLIYKVSNRFSGVPDRFSGSGSGTDFTLKISRVEAEDVGVYYCSQNTHVPPTFGQGTKVEIERTVAAPSVFIFPPSDEQLKSGTASVVCLLNNFYPREAKVQWKVDNALQSGNSQESVTEQDSKDSTYSLSSTLTLSKADYEKHKVYACEVTHQGLSSPVTKSFNRGEC
notes: Heterodimerized anti-glypican-3 IgG1; the mutation stands in the GpH7-B3 chain only

He/Con_1a [1]: 106 % of GpH7-A5/GpH7-B3/GpL16-k0 (=100)
He/Con_2b [2]: 83 % of GpH7-A5/GpH7-B3/GpL16-k0 (=100)
B6: GpH7-A5/GpH7-B3 variant H268_11K/GpL16-k0 (He Ab) (antibody, human IgG1, kappa)
heavy 1: not shown
heavy 2: not shown
light: DIVMTQSPLSLPVTPGEPASISCQASESLVHSNRNTYLHWYLQKPGQSPQLLIYKVSNRFSGVPDRFSGSGSGTDFTLKISRVEAEDVGVYYCSQNTHVPPTFGQGTKVEIERTVAAPSVFIFPPSDEQLKSGTASVVCLLNNFYPREAKVQWKVDNALQSGNSQESVTEQDSKDSTYSLSSTLTLSKADYEKHKVYACEVTHQGLSSPVTKSFNRGEC
notes: as for B4

He/Con_1a [1]: 112 % of GpH7-A5/GpH7-B3/GpL16-k0 (=100)
He/Con_2b [2]: 84.3 % of GpH7-A5/GpH7-B3/GpL16-k0 (=100)
B10: GpH7-A5/GpH7-B3 variant Y300_06M/GpL16-k0 (He Ab) (antibody, human IgG1, kappa)
heavy 1: not shown
heavy 2: not shown
light: DIVMTQSPLSLPVTPGEPASISCQASESLVHSNRNTYLHWYLQKPGQSPQLLIYKVSNRFSGVPDRFSGSGSGTDFTLKISRVEAEDVGVYYCSQNTHVPPTFGQGTKVEIERTVAAPSVFIFPPSDEQLKSGTASVVCLLNNFYPREAKVQWKVDNALQSGNSQESVTEQDSKDSTYSLSSTLTLSKADYEKHKVYACEVTHQGLSSPVTKSFNRGEC
notes: as for B4

Continued, binder first:

B1: GpH7-A5/GpH7-B3 variant Y300_07I/GpL16-k0 (He Ab) (antibody, human IgG1, kappa)
heavy 1: not shown
heavy 2: not shown
light: DIVMTQSPLSLPVTPGEPASISCQASESLVHSNRNTYLHWYLQKPGQSPQLLIYKVSNRFSGVPDRFSGSGSGTDFTLKISRVEAEDVGVYYCSQNTHVPPTFGQGTKVEIERTVAAPSVFIFPPSDEQLKSGTASVVCLLNNFYPREAKVQWKVDNALQSGNSQESVTEQDSKDSTYSLSSTLTLSKADYEKHKVYACEVTHQGLSSPVTKSFNRGEC
notes: as for B4
He/Con_1a [1]: 108 % of GpH7-A5/GpH7-B3/GpL16-k0 (=100)
He/Con_2b [2]: 74.5 % of GpH7-A5/GpH7-B3/GpL16-k0 (=100)

B2: GpH7-A5/GpH7-B3 variant Y300_01G/GpL16-k0 (He Ab) (antibody, human IgG1, kappa)
heavy 1: not shown
heavy 2: not shown
light: DIVMTQSPLSLPVTPGEPASISCQASESLVHSNRNTYLHWYLQKPGQSPQLLIYKVSNRFSGVPDRFSGSGSGTDFTLKISRVEAEDVGVYYCSQNTHVPPTFGQGTKVEIERTVAAPSVFIFPPSDEQLKSGTASVVCLLNNFYPREAKVQWKVDNALQSGNSQESVTEQDSKDSTYSLSSTLTLSKADYEKHKVYACEVTHQGLSSPVTKSFNRGEC
notes: as for B4
He/Con_1a [1]: 116 % of GpH7-A5/GpH7-B3/GpL16-k0 (=100)
He/Con_2b [2]: 48.4 % of GpH7-A5/GpH7-B3/GpL16-k0 (=100)

B3: GpH7-A5/GpH7-B3 variant Y300_03V/GpL16-k0 (He Ab) (antibody, human IgG1, kappa)
heavy 1: not shown
heavy 2: not shown
light: DIVMTQSPLSLPVTPGEPASISCQASESLVHSNRNTYLHWYLQKPGQSPQLLIYKVSNRFSGVPDRFSGSGSGTDFTLKISRVEAEDVGVYYCSQNTHVPPTFGQGTKVEIERTVAAPSVFIFPPSDEQLKSGTASVVCLLNNFYPREAKVQWKVDNALQSGNSQESVTEQDSKDSTYSLSSTLTLSKADYEKHKVYACEVTHQGLSSPVTKSFNRGEC
notes: as for B4
He/Con_1a [1]: 117 % of GpH7-A5/GpH7-B3/GpL16-k0 (=100)
He/Con_2b [2]: 73.9 % of GpH7-A5/GpH7-B3/GpL16-k0 (=100)

B5: GpH7-A5/GpH7-B3 variant K326_12R/GpL16-k0 (He Ab) (antibody, human IgG1, kappa)
heavy 1: not shown
heavy 2: not shown
light: DIVMTQSPLSLPVTPGEPASISCQASESLVHSNRNTYLHWYLQKPGQSPQLLIYKVSNRFSGVPDRFSGSGSGTDFTLKISRVEAEDVGVYYCSQNTHVPPTFGQGTKVEIERTVAAPSVFIFPPSDEQLKSGTASVVCLLNNFYPREAKVQWKVDNALQSGNSQESVTEQDSKDSTYSLSSTLTLSKADYEKHKVYACEVTHQGLSSPVTKSFNRGEC
notes: as for B4
He/Con_1a [1]: 100 % of GpH7-A5/GpH7-B3/GpL16-k0 (=100)
He/Con_2b [2]: 89.2 % of GpH7-A5/GpH7-B3/GpL16-k0 (=100)

B7: GpH7-A5/GpH7-B3 variant S324_07I/GpL16-k0 (He Ab) (antibody, human IgG1, kappa)
heavy 1: not shown
heavy 2: not shown
light: DIVMTQSPLSLPVTPGEPASISCQASESLVHSNRNTYLHWYLQKPGQSPQLLIYKVSNRFSGVPDRFSGSGSGTDFTLKISRVEAEDVGVYYCSQNTHVPPTFGQGTKVEIERTVAAPSVFIFPPSDEQLKSGTASVVCLLNNFYPREAKVQWKVDNALQSGNSQESVTEQDSKDSTYSLSSTLTLSKADYEKHKVYACEVTHQGLSSPVTKSFNRGEC
notes: as for B4
He/Con_1a [1]: 102 % of GpH7-A5/GpH7-B3/GpL16-k0 (=100)
He/Con_2b [2]: 95.7 % of GpH7-A5/GpH7-B3/GpL16-k0 (=100)

B8: GpH7-A5/GpH7-B3 variant E269_18N/GpL16-k0 (He Ab) (antibody, human IgG1, kappa)
heavy 1: not shown
heavy 2: not shown
light: DIVMTQSPLSLPVTPGEPASISCQASESLVHSNRNTYLHWYLQKPGQSPQLLIYKVSNRFSGVPDRFSGSGSGTDFTLKISRVEAEDVGVYYCSQNTHVPPTFGQGTKVEIERTVAAPSVFIFPPSDEQLKSGTASVVCLLNNFYPREAKVQWKVDNALQSGNSQESVTEQDSKDSTYSLSSTLTLSKADYEKHKVYACEVTHQGLSSPVTKSFNRGEC
notes: as for B4
He/Con_1a [1]: 102 % of GpH7-A5/GpH7-B3/GpL16-k0 (=100)
He/Con_2b [2]: 44.8 % of GpH7-A5/GpH7-B3/GpL16-k0 (=100)

B9: GpH7-A5/GpH7-B3 variant S324_03V/GpL16-k0 (He Ab) (antibody, human IgG1, kappa)
heavy 1: not shown
heavy 2: not shown
light: DIVMTQSPLSLPVTPGEPASISCQASESLVHSNRNTYLHWYLQKPGQSPQLLIYKVSNRFSGVPDRFSGSGSGTDFTLKISRVEAEDVGVYYCSQNTHVPPTFGQGTKVEIERTVAAPSVFIFPPSDEQLKSGTASVVCLLNNFYPREAKVQWKVDNALQSGNSQESVTEQDSKDSTYSLSSTLTLSKADYEKHKVYACEVTHQGLSSPVTKSFNRGEC
notes: as for B4
He/Con_1a [1]: 104 % of GpH7-A5/GpH7-B3/GpL16-k0 (=100)
He/Con_2b [2]: 97.8 % of GpH7-A5/GpH7-B3/GpL16-k0 (=100)
